What all share (settings): both partners purified
The target of test [1] is SARS-CoV-2 WA1 RBD (SARS-CoV-2 USA-WA1/2020 (MT246667.1)). Briefly: SPR. In general terms: Surface plasmon resonance follows binding to a sensor surface in real time, without labels.
A further test has as its target T1, Yun11-CoV RBD (Bat coronavirus Cp/Yunnan2011 (Yun11), UniProt R9QTH3).
T1 construct: source: Expi293F cells, transient transfection, purified (Ni-NTA, SEC)
Nature of the test: ELISA. (In general: ELISA stands for enzyme-linked immunosorbent assay.)

Test [2] addresses SARS-CoV-2 RBD (residues 323-528) (SARS-CoV-2 WA1). Briefly: crystal structure.
Test [3] addresses SARS-CoV-2 WA1 RBD (SARS-CoV-2 USA-WA1/2020 (MT246667.1)). Nature of the test: ELISA.
For a further test, the target named is T2, Rf1-CoV RBD (Bat SARS CoV Rf1/2004, UniProt Q0QDZ0).
T2 construct: source: Expi293F cells, transient transfection, purified (Ni-NTA, SEC)
Nature of the test: ELISA.

We go through twelve molecules from publication PMC9606073 (Immunity, 2022).

B1: C118 IgG (antibody, V domains shown)
VH: QVQLVESGGGVVQPGRSLRLSCAASGFTFSNYAMHWVRQAPGKGLEWVAVISYDGSNKYYADSVKGRFTISRDNSKNTLYLQMNSLRAEDTAIYYCASGYTGYDYFVRGDYYGLDVWGQGTTVTVSS
VL: QPVLTQSPSASASLGASVKLTCTLSSGHSSYAIAWHQQQPEKGPRYLMKLNTDGSHSKGDGIPDRFSGSSSGAERYLTISSLQSEDEADYYCQTWGTGILVFGGGTKLTVL
notes: copies: 2 + 2
As to B1, in the test with SARS-CoV-2 WA1 RBD [1], the dissociation constant Kd is 0.19 nM, the off-rate (koff) came to 3.5e-05 s⁻¹ and the association rate constant (kon) came to 180000 M⁻¹ s⁻¹.

B2: M8a-3 IgG (antibody, V domains shown)
VH: QVQLQQPGAELVLPGASVKLSCKASGYTFTNYWMHWVKQRPGHGLEWIGEIDPFDTYIKINQKFKGKSTLTVDTSSSTAYMQLSSLTSEDSAVYYCARPDSSGYPVYFDYWGQGTTLTVSS
VL: DIVMTQSHKFMSTSVGDRVSITCKASQDVGTYIAWYQQKPGQSPKLLIYWASTRHTGVPDRFTGSGSGTNYTLTISSVQAEDLALYHCQQHYSTPYTFGGGTKLEIK
notes: copies: 2 + 2
In the test with SARS-CoV-2 WA1 RBD [1], B2 returned a dissociation constant (Kd) of 0.86 nM, a koff of 0.00016 s⁻¹ and an association rate constant (kon) of 190000 M⁻¹ s⁻¹.

B3: M8a-3 IgG (antibody, V domains shown)
VH: QVQLQQPGAELVLPGASVKLSCKASGYTFTNYWMHWVKQRPGHGLEWIGEIDPFDTYIKINQKFKGKSTLTVDTSSSTAYMQLSSLTSEDSAVYYCARPDSSGYPVYFDYWGQGTTLTVSS
VL: DIVMTQSHKFMSTSVGDRVSITCKASQDVGTYIAWYQQKPGQSPKLLIYWASTRHTGVPDRFTGSGSGTNYTLTISSVQAEDLALYHCQQHYSTPYTFGGGTKLEIK
notes: copies: 2 + 2
As for B3, the binding result with Yun11-CoV RBD is given as “binds”.

B4: HSW-2 Fab (Fab, V domains shown)
VH: QVQLQQSGPELVKPGASVKISCKASGYVFSTSWMSWVKQRPGEGPEWIGRIYPRDGHSSSTGKFKDKATLTADKSSNTAYIHLSSLTSEDSAVYFCARDYGYYYFDYWGQGTTLTVSS
VL: DIQMTQSPASLSASVGEAVTITCRLSENVYSFLAWYQQKQGKSPQLLVYRAKTLAEGVPSRFSGSGSGTQFSLKINSLQPEDFGTYYCQHHYGTPPTFGGGTKLEIK
As to B4, in test [2], the binding result is “binds”.

B5: HSW-2 IgG (antibody, V domains shown)
VH: QVQLQQSGPELVKPGASVKISCKASGYVFSTSWMSWVKQRPGEGPEWIGRIYPRDGHSSSTGKFKDKATLTADKSSNTAYIHLSSLTSEDSAVYFCARDYGYYYFDYWGQGTTLTVSS
VL: DIQMTQSPASLSASVGEAVTITCRLSENVYSFLAWYQQKQGKSPQLLVYRAKTLAEGVPSRFSGSGSGTQFSLKINSLQPEDFGTYYCQHHYGTPPTFGGGTKLEIK
notes: copies: 2 + 2
Turning to B5, the binding result with SARS-CoV-2 WA1 RBD [3] is reported as “binds”.

B6: M8a-31 IgG (antibody, V domains shown)
VH: EVQLKQSVAELVRPGASVKVSCTASGFNIKNIYMHWVKQRPEQGLDWIGRIDPANGNSRYAPKFQDKATITADTSSNTAYLQLSSLTSEDTAIYYCADEGWGFANWGQGTLVTVSA
VL: DIVMTQSPSSLTVTAGEKVTMSCKSSQSLLNSGNQKNYLTWYQQKVGQPPKLLIYWASTRDPGVPDRFTGSGFGTDFTLTISSVQAEDLAVYYCQNDYSYPLTFGAGTKVELK
notes: copies: 2 + 2
B6: the binding result in the test with Rf1-CoV RBD, with Yun11-CoV RBD and with SARS-CoV-2 WA1 RBD [3] was “binds” throughout.

B7: M8a-34 IgG (antibody, V domains shown)
VH: QVQLQQPGAELVKPGASVKMSCKASGYTFITYWITWVKQRPGQGLEWIGDIYPGGGRTNYNEKFKSKATLTVDTSSSTAYMQLRSLTSEDSAVYYCARYDGNYVGYYYAMDYWGQGTSVTVSS
VL: DIVLTQSPVSLAVSLGQRATISCRASESVDFYGNSFIYWYQQKPGQAPKLLIYRASNLESGIPARFSGSGSRTDFTLTIHPVEADDVATYYCQQSIEDPRTFGGGTKLEIK
notes: copies: 2 + 2
In the case of B7, the binding result with Rf1-CoV RBD, with Yun11-CoV RBD and with SARS-CoV-2 WA1 RBD [3] was “binds” throughout.

B8: M8a-34 Fab (Fab, V domains shown)
VH: QVQLQQPGAELVKPGASVKMSCKASGYTFITYWITWVKQRPGQGLEWIGDIYPGGGRTNYNEKFKSKATLTVDTSSSTAYMQLRSLTSEDSAVYYCARYDGNYVGYYYAMDYWGQGTSVTVSS
VL: DIVLTQSPVSLAVSLGQRATISCRASESVDFYGNSFIYWYQQKPGQAPKLLIYRASNLESGIPARFSGSGSRTDFTLTIHPVEADDVATYYCQQSIEDPRTFGGGTKLEIK
As to B8, the binding result in test [2] is “binds”.

B9: M8a-6 IgG (antibody, V domains shown)
VH: QVQLQQPGTELVMPGASVKLSCKTSGYTFTHYWMHWVKQRPGEGLEWIGEIAPSDNYVKYNQKFKGKSTLSVDRSSSTAYMQLSSLTSEDSAVYFCARPDNSGYPVYFDYWGQGTSLTVSS
VL: DIVMTQSQKFMSTSLGDRVSISCKASQDVGTTVAWYQQKPGQSPKLLIYWASTRHTGVPDRFTGTGSGTDYTLTISSVAAEDLALYYCQQHYNTPYTFGGGTKLEIE
notes: copies: 2 + 2
On to B9, for which the dissociation constant (Kd) with SARS-CoV-2 WA1 RBD [1] turned out to be 104 nM.

B10: M8a-6 Fab (Fab, V domains shown)
VH: QVQLQQPGTELVMPGASVKLSCKTSGYTFTHYWMHWVKQRPGEGLEWIGEIAPSDNYVKYNQKFKGKSTLSVDRSSSTAYMQLSSLTSEDSAVYFCARPDNSGYPVYFDYWGQGTSLTVSS
VL: DIVMTQSQKFMSTSLGDRVSISCKASQDVGTTVAWYQQKPGQSPKLLIYWASTRHTGVPDRFTGTGSGTDYTLTISSVAAEDLALYYCQQHYNTPYTFGGGTKLEIE
notes: source: Expi293 cells, transient transfection, purified (Ni-NTA, SEC)
Take B10: in test [2], the binding result is reported as “binds”.

B11: HSW-1 IgG (antibody, V domains shown)
VH: QVQLQQPGAELVKPGTSMKLSCKASGYTFTSYWMHWVKQRPGQGLEWIGMIHPNSGSTKYNENFKSKATLTVDKSSSTAYMQFSSLTSEDSAVYYCVRSGSYYGTTYDYFDYWGQGTTLTVSS
VL: DIVLTQSPASLAVSLGQRATISCRASESVNIYGNSFMHWYQQKPGQPPKLLIFRASNLESGIPVRFSGSGSRTDFTLTINPVEADDVATYYCHQSNEDPFTFGSGTKLEIK
notes: copies: 2 + 2
In the case of B11, in the test with SARS-CoV-2 WA1 RBD [3], the binding result was “binds”.

B12: M8a-28 IgG (antibody, V domains shown)
VH: QVQLQQPGAELVKPGASVKMSCKASGYNFNHYWISWVKQRPGQGLEWIGDIYPLSHFTTYNEKFTNRATLTVDTSSTTAYMQLNSLTSDDSAVFYCARWDYFDSRTFDYWGQGTTLTVSS
VL: DILLTQFPAILSVSPGERVSFSCRASQTIGTNIHWYQQRINGSPRLLIKYASESISGIPSRFSGSGSGTDFSLSINNVESEDIADYYCQQINSWPLTFGAGTKLDLK
notes: copies: 2 + 2
B12: in the test with SARS-CoV-2 WA1 RBD [3], the binding result was “binds”.

The Kd is the free concentration of one partner at which half of the binding sites on the other are occupied at equilibrium, for simple one-to-one binding. Usually koff stands for a measure of how fast the partners let go of each other. Read a high koff as a short-lived complex. For orientation: kon means a measure of how fast the partners come together.
